Three molecules from article PMC2666074 (Biochemistry, 2008) can be followed below.

Data set [1] addresses T1, S100A6 (rabbit, intact) (rabbit, UniProt P30801 1-90). Description: ITC. (In general: Isothermal titration calorimetry measures the heat released or taken up as one component is titrated into another.)
In data set [2] the target is T1, S100A6 (rabbit, intact). Description: native MS.
Data set [3] concerns the molecule itself. Description: cross-linking.
Data set [4] deals with T1, S100A6 (rabbit, intact). The data set can be described thus: NMR titration.

As a reminder, the Kd is the concentration at which binding is half-saturated. As for SEGLMNVLKKIYEDG [SIP(189–203)], in data set [1], the Kd is 20 µM.
By stoichiometry N is commonly meant a count of units in the complex or per binding partner. For SEGLMNVLKKIYEDGDDDMKRTINKAWVESR (peptide, UniProt Q9CXW3 189-219, looked up) [SIP(189–219)], the “stoichiometry N” value in data set [2] is 2 SIP(189–219) per S100A6 dimer; in data set [4] it was 2 SIP per S100A6 dimer. Besides, the binding result in data set [3] is listed as “binds”. This molecule also had a Kd in data set [1] of 5 µM.

B1: SIP(178–229), SGS domain of SIP (domain or fragment)
chain: EKPSYDTEADPSEGLMNVLKKIYEDGDDDMKRTINKAWVESREKQAREDTEF
For the molecule B1, the binding result in data set [1] is reported as “binds”.
